Assay results: patent publication US20250188157A1 (UNIVERSITY OF TOKYO, published 2025)

T1: E. coli wild-type SHMT, GST fusion protein (E. coli, UniProt P0A825 1-417)
T1 construct: Overexpressed in E. coli as GST fusion protein, purified, coated at 2 ug/ml on the ELISA plate; not shown: GST tag
T1 sequence: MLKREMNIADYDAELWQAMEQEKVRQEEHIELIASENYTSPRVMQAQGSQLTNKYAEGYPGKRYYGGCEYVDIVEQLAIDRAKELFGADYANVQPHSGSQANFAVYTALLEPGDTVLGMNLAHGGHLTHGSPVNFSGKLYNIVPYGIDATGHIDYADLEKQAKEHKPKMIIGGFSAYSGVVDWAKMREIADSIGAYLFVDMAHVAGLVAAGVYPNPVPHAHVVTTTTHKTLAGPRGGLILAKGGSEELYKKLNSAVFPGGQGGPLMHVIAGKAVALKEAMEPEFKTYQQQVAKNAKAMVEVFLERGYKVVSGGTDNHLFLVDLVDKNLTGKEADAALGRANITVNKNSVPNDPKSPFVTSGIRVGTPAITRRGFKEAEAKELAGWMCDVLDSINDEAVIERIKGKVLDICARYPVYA

T2: E. coli SHMT (25-45) (E. coli)
T2 construct: Expressed as GST fusion, cleaved with HRV 3C protease and purified for crystallisation; also called E. coli SHMT antigen
T2 peptide: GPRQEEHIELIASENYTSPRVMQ

T3: C. difficile iPGM (486-509) (Clostridium difficile)
T3 construct: the blank is left out; also called C. difficile iPGM antigen
T3 peptide: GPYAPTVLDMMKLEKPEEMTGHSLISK

T4: E. coli iPGM (E. coli, UniProt P37689 1-514, limits assumed)
T4 sequence (looked up): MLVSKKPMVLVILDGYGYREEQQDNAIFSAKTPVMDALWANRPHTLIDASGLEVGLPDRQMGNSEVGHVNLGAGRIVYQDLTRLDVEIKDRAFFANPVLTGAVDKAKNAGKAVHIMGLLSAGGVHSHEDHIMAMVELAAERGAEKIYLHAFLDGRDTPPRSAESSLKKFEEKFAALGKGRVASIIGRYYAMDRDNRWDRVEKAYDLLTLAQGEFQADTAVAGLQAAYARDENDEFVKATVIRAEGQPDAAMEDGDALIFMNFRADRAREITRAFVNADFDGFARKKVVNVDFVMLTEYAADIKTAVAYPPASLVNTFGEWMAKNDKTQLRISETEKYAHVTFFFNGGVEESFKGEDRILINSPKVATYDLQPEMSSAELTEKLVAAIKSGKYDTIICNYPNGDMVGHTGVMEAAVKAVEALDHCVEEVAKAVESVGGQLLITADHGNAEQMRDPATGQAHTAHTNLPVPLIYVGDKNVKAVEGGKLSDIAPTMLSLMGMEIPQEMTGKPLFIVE

B1: RS_H007_L001 (antibody, V domains shown)
VH: EVQLQQSGSELVKSGASVKLSCTVSGFNFTNYYIHWVRQRTEQGLEWIGRIDPENNQTTYAPKFQGKATMTADTSSNTAYLQLTSLTSEDTAVYYCARSTVLDYWGHGTTLTVSS
VL: DVLMTQSPASLSVSLGDRATISCRASQSIVHTNGNTYLEWYLQKPGQSPKLLIYKVSNRFSGVPDRFSGSGSGTDFILKISRVEAEDLGVYYCFQGSHVPPTFGGGTKLEVK
B2: RS_H000_L000GR Fab (Fab, V domains shown)
VH: EVQLQQSGSELVKSGASVKLSCTVSGFNFTDYYIHWVRQRTEQGLEWIGRIDPENDETTYAPKFQGKATMTADTSSNTAYLQLTSLTSEDTAVYYCARSTVLDYWGHGTTLTVSS
VL: DVLMTQTPLSLPVSLGDQASISCRASQSIVHTNGNTYLEWYLQKPGQSPKLLIYKVSNRFSGVPDRFSGSGSGTDFILKISRVEAEDLGVYYCFQGSHVPPTFGGGTKLEVK
notes: also called IgG W27 Fab
B3: W27G2 antibody (mouse W27G2 hybridoma-producing IgA antibody) (antibody, V domains shown)
VH: EVQLQQSGSELVKSGASVKLSCTVSGFNFTDYYIHWVRQRTEQGLEWIGRIDPENDETTYAPKFQGKATMTADTSSNTAYLQLTSLTSEDTAVYYCARSTVLDYWGHGTTLTVSS
VL: DVLMTQTPLSLPVSLGDQASISCRASQSIVHTNGNTYLEWYLQKPGQSPKLLIYKVSNRFSGVPDRFSGSGSGTDFILKISRVEAEDLGVYYCFQGSHVPPTFGGGTKLEVKR
notes: Hybridoma-producing IgA; Both names are treated as one molecule here; W27G2CHT is the hydroxyapatite crude preparation, W27G2GF the gel filtration multimer fraction; also called W27 antibody; W27G2CHT
B4: RS_H007_L005 (antibody, V domains shown)
VH: EVQLQQSGSELVKSGASVKLSCTVSGFNFTNYYIHWVRQRTEQGLEWIGRIDPENNQTTYAPKFQGKATMTADTSSNTAYLQLTSLTSEDTAVYYCARSTVLDYWGHGTTLTVSS
VL: DVLMTQSPASLSVSLGDRATISCRSSQSIVHTNGNTYLEWYLQKPGQSPKLLIYKVSNRFSGVPDRFSGSGSGTDFILKISRVEAEDLGVYYCFQGSHVPPTFGGGTKLEVK
B5: RS_H000_L001 (antibody, V domains shown)
VH: EVQLQQSGSELVKSGASVKLSCTVSGFNFTDYYIHWVRQRTEQGLEWIGRIDPENDETTYAPKFQGKATMTADTSSNTAYLQLTSLTSEDTAVYYCARSTVLDYWGHGTTLTVSS
VL: DVLMTQSPASLSVSLGDRATISCRASQSIVHTNGNTYLEWYLQKPGQSPKLLIYKVSNRFSGVPDRFSGSGSGTDFILKISRVEAEDLGVYYCFQGSHVPPTFGGGTKLEVK
notes: recombinant multimeric IgA co-expressed with J chain (H:L:J = 2:2:1); mainly dimers by SDS-PAGE; also called rW27
B6: RS_H007_L004 (antibody, V domains shown)
VH: EVQLQQSGSELVKSGASVKLSCTVSGFNFTNYYIHWVRQRTEQGLEWIGRIDPENNQTTYAPKFQGKATMTADTSSNTAYLQLTSLTSEDTAVYYCARSTVLDYWGHGTTLTVSS
VL: DVLMTQSPASMSVSLGDRATISCRSSQSIVHTNGNTYLEWYLQKPGQSPKLLIYKVSNRFSGVPDRFSGSGSGTDFILKISRVEAEDLGVYYCFQGSHVPPTFGGGTKLEVK
B7: RS_H000_L005 (antibody, V domains shown)
VH: EVQLQQSGSELVKSGASVKLSCTVSGFNFTDYYIHWVRQRTEQGLEWIGRIDPENDETTYAPKFQGKATMTADTSSNTAYLQLTSLTSEDTAVYYCARSTVLDYWGHGTTLTVSS
VL: DVLMTQSPASLSVSLGDRATISCRSSQSIVHTNGNTYLEWYLQKPGQSPKLLIYKVSNRFSGVPDRFSGSGSGTDFILKISRVEAEDLGVYYCFQGSHVPPTFGGGTKLEVK
B8: RS_H007_L002 (antibody, V domains shown)
VH: EVQLQQSGSELVKSGASVKLSCTVSGFNFTNYYIHWVRQRTEQGLEWIGRIDPENNQTTYAPKFQGKATMTADTSSNTAYLQLTSLTSEDTAVYYCARSTVLDYWGHGTTLTVSS
VL: DVLMTQSPASLSVSLGDRVTISCRASQSIVHTNGNTYLEWYLQKPGQSPKLLIYKVSNRFSGVPDRFSGSGSGTDFILKISRVEAEDLGVYYCFQGSHVPPTFGGGTKLEVK

How the values were obtained:
[1] = biological target: T1, E. coli wild-type SHMT, GST fusion …; assay: ELISA, GST fusion protein coated at 2 ug/ml, dilution series of antibody
E. coli SHMT (25-45) = biological target: T2, E. coli SHMT (25-45); assay: X-ray crystal structure of the complex
[2] = biological target: T3, C. difficile iPGM (486-509); assay: X-ray crystal structure of the complex
E. coli iPGM = biological target: T4, E. coli iPGM; assay: Western blot

Binder	binding result [1]	other results
B1	binds	–
B2	–	binding result (E. coli SHMT (25-45)): binds; binding result [2]: binds
B3	binds	binding result (E. coli iPGM): no binding
B4	binds	–
B5	binds	–
B6	binds	–
B7	binds	–
B8	binds	–
